This note sets out measurements from patent US20160176973A1 (published 2016).

Among the targets are BC 244-C6 x CD3; BCMA 101 x CD3; BC 247-C3 x CD3.
Holding throughout (experiment): SPR (Biacore)

B1: Human BCMA (receptor)
chain (part 1 of 2): MLQMAGQCSQNEYFDSLLHACIPCQLRCSSNTPPLTCQRYCNASVTNSVKGTNASGGGGSEAHKSEIAHRYNDLGEQHFKGLVLIAFSQYLQKCSYDEHAKLVQEVTDFAKTCVADESAANCDKSLHTLFGDKLCAIPNLRENYGELADCCTKQEPERNECFLQHKDDNPSLPPFERPEAEAMCTSFKENPTTFMGHYLHEVARRHPYFYAPELLYYAEQYNEILTQCCAEADKESCLTPKLDGVKEKALVSSVRQRMKCSSMQKFGERAFKAWAVARLSQTFPNADFAEITKLATDLTKVNKECCHGDLLECADDRAELAKYMCENQATISSKLQTCCDKPLLKKAHCLSEVEHDTMPADLPAIAADFVEDQEVCKNYAEAKDVFLGTFLYEYSRRHPDYSVSLLLRLAKKYEATLEKCCAEANPPACYGTVLAEFQPLVEEPKNLVKTNCDLYEKLGEYGFQNAILVRYTQKAPQVSTPTLVEAARNLGRVGTKCCTLPEDQRLPCVEDYLSAILNRVCLLHEKTPVSEHVTKCCSGSLVERRPCFSALTVDETYVPKEFKAETFTFHSDICTLPEKEKQIKKQTALAELVKHKPKATAEQLKTVMDDFAQFLDTCCKAADKDTCFSTEGPNLVTRCKDALA
chain (part 2 of 2): SGHHGGHHGGHH
B1: the dissociation constant Kd was 0.3 nM with BC 244-C6 x CD3, 0.5 nM with BCMA 101 x CD3 and 0.4 nM with BC 247-C3 x CD3.
